The source of these data is patent publication US20180320138.

Data set [1] has as its system PKLR TALEN right subunit (synthetic construct (Xanthomonas TALE-FokI)?). Put plainly: cell_activity. The settings on record: PKD2iPSC, with left subunit; 31% in PKD3iPSC; cleavage also seen by Surveyor assay.
Data set [2] has as its system PKLR TALEN left subunit (synthetic construct (Xanthomonas TALE-FokI)?). Put plainly: cell_activity. The conditions noted are these: PKD2iPSC, with right subunit; 31% in PKD3iPSC; cleavage also seen by Surveyor assay.

“TGATCGAGCCACTGTACTCCAGCCTAGGTGACAGACGAGACCCTAGAGA (double strand) [PKLR intron 2 TALEN target, right half-site]”: the TALEN cleavage efficiency in data set [1] came out at 40%.
On to “TGATCGAGCCACTGTACTCCAGCCTAGGTGACAGACGAGACCCTAGAGA (double strand) [PKLR intron 2 TALEN target, left half-site]”, for which, in data set [2], the TALEN cleavage efficiency was determined as 40%.
